{
  "source": "paper PMC9756947",
  "about": "“Structural basis of transcription regulation by CNC family transcription factor, Nrf2” (Nucleic Acids Research, 2022)",
  "binders": {"B1": {"name": "EMSA CsMBE probe (dsDNA)", "DNA 1": "CCGCAGTCACAGTGACTCAGCAGAATCTGA", "DNA 2": "CTCAGATTCTGCTGAGTCACTGTGACTGCG"}, "B2": {"name": "CsMBE1 (dsDNA)", "DNA 1": "CATGATGAGTCAGCAA", "DNA 2": "GTTGCTGACTCATCAT"}, "B3": {"name": "human MafG (residues 21–123, without any tag) (domain or fragment, UniProt O15525 21-123, looked up)", "chain": "GTSLTDEELVTMSVRELNQHLRGLSKEEIVQLKQRRRTLKNRGYAASCRVKRVTQKEELEKQKAELQQEVEKLASENASMKLELDALRSKYEALQTFARTVAR", "notes": "human MafG, residues 21-123: EHR, basic region and leucine zipper; Construct used for crystallization; source: E. coli BL21 (DE3), pAR2156-MafG, plating method, purified (HiTrap Heparin, Superdex 75)"}, "B4": {"name": "human MafG fragment (residues 21–123), His6 tag removed (domain or fragment, UniProt O15525 21-123, looked up)", "chain": "B3 chain", "notes": "human MafG, residues 21-123; Construct used for EMSA; also called MafG (21–123); source: E. coli BL21(DE3)-RIL, purified (phosphocellulose P11, HisTrap HP, Superdex 75); not shown: His6, N-terminal, cleaved"}, "B5": {"name": "human c-Jun fragment (residues 237–331) (domain or fragment, UniProt P05412 237-331, looked up)", "chain": "GETPPLSPIDMESQERIKAERKRMRNRIAASKCRKRKLERIARLEEKVKTLKAQNSELASTANMLREQVAQLKQKVMNHVNSGCQLMLTQQLQTF", "notes": "human c-Jun, residues 237-331; source: E. coli, expressed and purified similarly to the c-Fos fragment"}, "B6": {"name": "CsMBE2 (dsDNA)", "DNA 1": "CACAGTGACTCAGCAG", "DNA 2": "GCTGCTGAGTCACTGT"}},
  "key": {"[1]": {"molecular_target": "T1, Nrf2 long fragment, wild type;MafG (EMSA construct) (Homo sapiens;Homo sapiens, UniProt Q16236;O15525 ;, |)", "assay": "EMSA (competitive, vs MafG homodimer); EC50 of Nrf2 at 1 nM MafG; 4 C, 16 h; EMSA: 20 mM Tris-HCl pH 7.2, 150 mM KCl, 10 mM DTT, 8 mg/ml BSA, 0.005% Tween 20, 50 ng/ml poly(dI-dC), 2.5% Ficoll; probe ~1.6 pM; 16 h (30 min for Jun-Fos); competitive assay at 4 C; gel at 4 C", "conditions": "protein: recombinant;recombinant; tags: N-terminal His6 (not removed);N-terminal His6, removed by HRV 3C (GPHM left); copies: 1;1; label: 32P 5' end; text says 30 bp)"}, "[2]": {"molecular_target": "c-Jun fragment;c-Fos fragment (Homo sapiens;Homo sapiens, UniProt P05412;P01100 ;, |)", "sequence (P05412 other isoform, or with tags, fused parts or gaps |, chain 1 of 2)": "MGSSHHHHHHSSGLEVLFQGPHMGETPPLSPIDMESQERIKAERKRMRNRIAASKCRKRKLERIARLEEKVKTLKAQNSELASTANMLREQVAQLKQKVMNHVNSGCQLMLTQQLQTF", "sequence (P01100 other isoform, or with tags, fused parts or gaps |, chain 2 of 2)": "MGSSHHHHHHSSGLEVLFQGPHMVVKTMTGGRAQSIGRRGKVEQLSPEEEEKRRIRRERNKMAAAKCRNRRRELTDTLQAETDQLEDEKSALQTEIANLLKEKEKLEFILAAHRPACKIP", "assay": "EMSA; heterodimer; 30 min; EMSA: 20 mM Tris-HCl pH 7.2, 150 mM KCl, 10 mM DTT, 8 mg/ml BSA, 0.005% Tween 20, 50 ng/ml poly(dI-dC), 2.5% Ficoll; probe ~1.6 pM; 16 h (30 min for Jun-Fos); competitive assay at 4 C; gel at 4 C", "conditions": "protein: recombinant;recombinant; tags: N-terminal His6;N-terminal His6; copies: 1;1; label: 32P 5' end; text says 30 bp)"}, "MafG (EMSA construct)": {"molecular_target": "MafG (EMSA construct) (Homo sapiens, UniProt O15525)", "assay": "EMSA; homodimer; 16 h; EMSA: 20 mM Tris-HCl pH 7.2, 150 mM KCl, 10 mM DTT, 8 mg/ml BSA, 0.005% Tween 20, 50 ng/ml poly(dI-dC), 2.5% Ficoll; probe ~1.6 pM; 16 h (30 min for Jun-Fos); competitive assay at 4 C; gel at 4 C", "conditions": "protein: recombinant; tags: N-terminal His6, removed by HRV 3C (GPHM left); chain copies: 2; label: 32P 5' end; text says 30 bp)"}, "[3]": {"molecular_target": "T1, Nrf2 long fragment, wild type;MafG …", "assay": "EMSA; Nrf2:MafG 3:1; MafG concentration taken as heterodimer; 16 h; EMSA: 20 mM Tris-HCl pH 7.2, 150 mM KCl, 10 mM DTT, 8 mg/ml BSA, 0.005% Tween 20, 50 ng/ml poly(dI-dC), 2.5% Ficoll; probe ~1.6 pM; 16 h (30 min for Jun-Fos); competitive assay at 4 C; gel at 4 C", "conditions": "protein: recombinant;recombinant; tags: N-terminal His6 (not removed);N-terminal His6, removed by HRV 3C (GPHM left); copies: 1;1; label: 32P 5' end; text says 30 bp)"}, "[4]": {"molecular_target": "T2, Nrf2 DNA-binding domain (CNC-bZIP);MafG (crystal construct) (Homo sapiens;Homo sapiens, UniProt Q16236;O15525 ;, |)", "assay": "X-ray crystallography; 2.3 A; EMSA: 20 mM Tris-HCl pH 7.2, 150 mM KCl, 10 mM DTT, 8 mg/ml BSA, 0.005% Tween 20, 50 ng/ml poly(dI-dC), 2.5% Ficoll; probe ~1.6 pM; 16 h (30 min for Jun-Fos); competitive assay at 4 C; gel at 4 C", "conditions": "protein: recombinant;recombinant; tags: N-terminal His6, removed by HRV 3C (GPHM left);none; copies: 1;1; 1-nt 5' overhang on each strand (15 bp)"}, "[5]": {"molecular_target": "T3, human Nrf2 fragment (residues 452–560) (human, UniProt Q16236 452-560)", "T3 construct": "His6 tag removed with HRV 3C protease; also called NFE2L2; Nuclear factor erythroid 2-like factor; source: E. coli BL21 (DE3), purified (phosphocellulose P11, HisTrap HP, HiTrap SP, Superdex 75); not shown: His6, N-terminal, cleaved", "T3 sequence (looked up)": "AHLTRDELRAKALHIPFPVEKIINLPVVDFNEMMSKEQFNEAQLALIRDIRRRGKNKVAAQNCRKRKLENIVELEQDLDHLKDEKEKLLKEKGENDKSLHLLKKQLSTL", "assay": "crystal structure; Nrf2, MafG and DNA (CsMBE1 or CsMBE2) mixed at a molar ratio of 1:1:1, 10 mg/ml in 33 mM DTT; two Nrf2–MafG–DNA complexes in the asymmetric unit", "conditions": "both partners purified"}, "[6]": {"molecular_target": "T4, longer human Nrf2 fragment (residues 182–560) (human, UniProt Q16236 182-560)", "T4 construct": "human Nrf2 (NFE2L2), residues 182-560; Used for EMSA; also called Nrf2 (182–560); wild-type Nrf2; not shown: His6, N-terminal, kept", "T4 sequence (looked up)": "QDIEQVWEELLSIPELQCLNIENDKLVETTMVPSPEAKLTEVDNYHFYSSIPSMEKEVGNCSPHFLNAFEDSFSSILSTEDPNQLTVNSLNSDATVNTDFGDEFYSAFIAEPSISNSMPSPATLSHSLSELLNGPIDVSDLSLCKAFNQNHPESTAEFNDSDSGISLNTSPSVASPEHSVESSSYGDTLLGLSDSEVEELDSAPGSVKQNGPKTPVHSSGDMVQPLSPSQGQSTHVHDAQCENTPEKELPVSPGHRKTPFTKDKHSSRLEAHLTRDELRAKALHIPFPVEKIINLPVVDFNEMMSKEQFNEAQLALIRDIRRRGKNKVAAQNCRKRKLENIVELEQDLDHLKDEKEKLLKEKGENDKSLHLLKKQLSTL", "assay": "native gel or EMSA; EMSA to determine KD for DNA: dimers mixed with 32P-end labeled CsMBE DNA probe (about 1.6 pM) in 20 mM Tris–HCl pH 7.2, 150 mM KCl, 10 mM DTT, BSA, Tween 20, Poly(dI-dC), Ficol; 30 min (Jun–Fos) or 16 h (Nrf2–MafG, MafG homodimer); Nrf2 and MafG mixed at 3:1; complexes seen on DNA", "conditions": "both partners purified"}, "[7]": {"molecular_target": "the molecule itself", "assay": "native gel or EMSA; EMSA to determine KD for DNA: dimers mixed with 32P-end labeled CsMBE DNA probe (about 1.6 pM) in 20 mM Tris–HCl pH 7.2, 150 mM KCl, 10 mM DTT, BSA, Tween 20, Poly(dI-dC), Ficol; 30 min (Jun–Fos) or 16 h (Nrf2–MafG, MafG homodimer); Nrf2 and MafG mixed at 3:1; complexes seen on DNA"}, "[8]": {"molecular_target": "T5, human c-Fos fragment (residues 111–207) (human, UniProt P01100 111-207)", "T5 construct": "human c-Fos, residues 111-207; The tag is cleavable with HRV 3C protease, but no removal is described; source: E. coli BL21(DE3)-RIL, precipitate solubilized in 6 M guanidine-HCl, purified (HisTrap HP), dialyzed", "T5 sequence (P01100 111-207)": "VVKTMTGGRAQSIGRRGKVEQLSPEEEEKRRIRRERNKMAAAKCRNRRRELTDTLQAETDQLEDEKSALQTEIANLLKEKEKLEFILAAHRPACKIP", "assay": "native gel or EMSA; EMSA to determine KD for DNA: dimers mixed with 32P-end labeled CsMBE DNA probe (about 1.6 pM) in 20 mM Tris–HCl pH 7.2, 150 mM KCl, 10 mM DTT, BSA, Tween 20, Poly(dI-dC), Ficol; 30 min (Jun–Fos) or 16 h (Nrf2–MafG, MafG homodimer); Nrf2 and MafG mixed at 3:1; complexes seen on DNA", "conditions": "both partners purified"}, "[9]": {"molecular_target": "T2, Nrf2 DNA-binding domain (CNC-bZIP);MafG …", "assay": "X-ray crystallography; 2.6 A; EMSA: 20 mM Tris-HCl pH 7.2, 150 mM KCl, 10 mM DTT, 8 mg/ml BSA, 0.005% Tween 20, 50 ng/ml poly(dI-dC), 2.5% Ficoll; probe ~1.6 pM; 16 h (30 min for Jun-Fos); competitive assay at 4 C; gel at 4 C", "conditions": "protein: recombinant;recombinant; tags: N-terminal His6, removed by HRV 3C (GPHM left);none; copies: 1;1; 1-nt 5' overhang on each strand (15 bp)"}},
  "data": [
    {"binder": "B1", "values": [
      {"measurement": "apparent K (half saturation)", "setting": "[1]", "result": 2.1, "unit": "nM"},
      {"measurement": "Kd", "setting": "[2]", "result": 129, "unit": "nM"},
      {"measurement": "Kd", "setting": "MafG (EMSA construct)", "result": 0.69, "unit": "nM"},
      {"measurement": "Kd", "setting": "[3]", "result": 0.53, "unit": "nM"}
    ]},
    {"binder": "B2", "values": [
      {"measurement": "binding result", "setting": "[4]", "result": "binds"}
    ]},
    {"binder": "B3", "values": [
      {"measurement": "binding result", "setting": "[5]", "result": "binds"}
    ]},
    {"binder": "B4", "values": [
      {"measurement": "binding result", "setting": "[6]", "result": "binds"},
      {"measurement": "binding result", "setting": "[7]", "result": "binds"}
    ]},
    {"binder": "B5", "values": [
      {"measurement": "binding result", "setting": "[8]", "result": "binds"}
    ]},
    {"binder": "B6", "values": [
      {"measurement": "binding result", "setting": "[9]", "result": "binds"}
    ]}
  ]
}
